{
  "source": "patent US20060188964A1",
  "about": "“Processing for producing and crystallizing G-protein coupled receptors” (priority 2004, published 2006)",
  "origin": "cited, not measured here",
  "system": "insulin action in the liver",
  "conditions": "mice; insulin clamp; recombinant protein from HEK-293T cells",
  "data": [
    {"molecule": "resistin: mouse resistin, a highly disulfide-linked hormone naturally secreted from adipocytes; recombinant, hexameric (protein, UniProt Q99P87 21-114, looked up) Resistin: SSMPLCPIDEAIDKKIKQDFNSLFPNAIKNIGLNCWTVSSRGKLASCPEGTAVLSCSCGSACGSWDIREEKVCHCQCARIDWTAARCCKLQVAS", "values": [
      {"measurement": "effect on insulin action", "result": "potent antagonist of insulin action in the liver"}
    ]}
  ]
}
